Measured values: publication PMC3338774, “Crystal Structure of ChrR—A Quinone Reductase with the Capacity to Reduce Chromate” (PLoS ONE, 2012)

T1: ChrR (Escherichia coli, UniProt P0AGE6)
T1 construct: full-length recombinant from E. coli BL21 (DE3), pET28a (His) or pTYB3 (intein), tags removed by thrombin or DTT; untagged WT crystallized; tetramer; residues 4-184 (chain A) and 4-185 (chain B) seen in crystal
T1 sequence (P0AGE6 1-188): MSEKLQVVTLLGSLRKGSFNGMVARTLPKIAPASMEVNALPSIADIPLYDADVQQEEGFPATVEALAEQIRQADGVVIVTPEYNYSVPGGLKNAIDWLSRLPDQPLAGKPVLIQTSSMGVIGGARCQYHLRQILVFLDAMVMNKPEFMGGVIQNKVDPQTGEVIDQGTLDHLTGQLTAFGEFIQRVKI

B1: Escherichia coli ChrR enzyme, wild type (enzyme)
chain: EKLQVVTLLGSLRKGSFNGMVARTLPKIAPASMEVNALPSIADIPLYDADVQQEEGFPATVEALAEQIRQADGVVIVTPEYNYSVPGGLKNAIDWLSRLPDQPLAGKPVLIQTSSMGVIGGARCQYHLRQILVFLDAMVMNKPEFMGGVIQNKVDPQTGEVIDQGTLDHLTGQLTAFGEFIQRVKI
notes: ChrR, quinone reductase with chromate reductase activity, Escherichia coli; the crystal structure models residues 4-184 (chain A) and 4-185 (chain B); The crystallised protein is called untagged; also called ChrR WT; native ChrR; source: E. coli BL21 (DE3), purified (His-Trap nickel or chitin bead column, tag removed, gel filtration on Superdex 200)
B2: ChrR21 (Tyr128Asn) (enzyme, Escherichia coli)
chain: EKLQVVTLLGSLRKGSFNGMVARTLPKIAPASMEVNALPSIADIPLYDADVQQEEGFPATVEALAEQIRQADGVVIVTPEYNYSVPGGLKNAIDWLSRLPDQPLAGKPVLIQTSSMGVIGGARCQNHLRQILVFLDAMVMNKPEFMGGVIQNKVDPQTGEVIDQGTLDHLTGQLTAFGEFIQRVKI
notes: ChrR, Escherichia coli, with Tyr128Asn; PDB 3SVL is the wild-type parent; source: E. coli BL21 (DE3), pET28a, purified (His-Trap nickel column, tag removed, gel filtration)
B3: ChrR43 (Arg125Met) (enzyme, Escherichia coli)
chain: EKLQVVTLLGSLRKGSFNGMVARTLPKIAPASMEVNALPSIADIPLYDADVQQEEGFPATVEALAEQIRQADGVVIVTPEYNYSVPGGLKNAIDWLSRLPDQPLAGKPVLIQTSSMGVIGGAMCQYHLRQILVFLDAMVMNKPEFMGGVIQNKVDPQTGEVIDQGTLDHLTGQLTAFGEFIQRVKI
notes: ChrR, Escherichia coli, with Arg125Met; PDB 3SVL is the wild-type parent; source: E. coli BL21 (DE3), pET28a, purified (His-Trap nickel column, tag removed, gel filtration)
B4: ChrR42 (Tyr85Asn) (enzyme, Escherichia coli)
chain: EKLQVVTLLGSLRKGSFNGMVARTLPKIAPASMEVNALPSIADIPLYDADVQQEEGFPATVEALAEQIRQADGVVIVTPEYNNSVPGGLKNAIDWLSRLPDQPLAGKPVLIQTSSMGVIGGARCQYHLRQILVFLDAMVMNKPEFMGGVIQNKVDPQTGEVIDQGTLDHLTGQLTAFGEFIQRVKI
notes: ChrR, Escherichia coli, with Tyr85Asn; PDB 3SVL is the wild-type parent; source: E. coli BL21 (DE3), pET28a, purified (His-Trap nickel column, tag removed, gel filtration)
B5: ChrR41 (Glu146Thr) (enzyme, Escherichia coli)
chain: EKLQVVTLLGSLRKGSFNGMVARTLPKIAPASMEVNALPSIADIPLYDADVQQEEGFPATVEALAEQIRQADGVVIVTPEYNYSVPGGLKNAIDWLSRLPDQPLAGKPVLIQTSSMGVIGGARCQYHLRQILVFLDAMVMNKPTFMGGVIQNKVDPQTGEVIDQGTLDHLTGQLTAFGEFIQRVKI
notes: ChrR, Escherichia coli, with Glu146Thr; PDB 3SVL is the wild-type parent; source: E. coli BL21 (DE3), pET28a, purified (His-Trap nickel column, tag removed, gel filtration)

Columns and labels:
ChrR = molecular target: T1, ChrR; test: X-ray crystallography, […] Å; type: binding; settings: bound at active site, non-covalent; crystals at PEG8000, NaCl, calcium acetate
[1] = molecular target: the molecule itself; test: crystal structure; untagged wild type ChrR at 26 mg/mL, sitting drop vapor diffusion, PEG8000, sodium chloride, calcium acetate; 2.2 Å, space group P6(3)22; two molecules (a homo-dimer) in the asymmetric unit, tetramer formed by two symmetry related dimers
[2] = molecular target: the molecule itself; test: SEC; analytic Superdex 200 10/300 column, 0.5 mL per min; proteins pre-incubated with FMN (1 mM, 2 h); various protein concentrations, including those used for measuring the enzyme activity

Molecule	stoichiometry N [2]	other results
Cc1cc2nc3c(=O)[nH]c(=O)nc-3n(C[C@H](O)[C@H](O)[C@H](O)COP(=O)(O)O)c2cc1C [FMN, flavin mononucleotide]		X-ray crystallography, 2.2 Å (ChrR): FMN is anchored by several hydrogen bonds to a typical strand-loop-helix nucleotide-binding motif
B1		stoichiometry N [1]: 4
B2	4	
B3	4	
B4	4	
B5	4	
